# Data: article PMC13070007, “TRBC2-targeting antibody–drug conjugates for the treatment of T cell cancers” (Nature cancer, 2025)
# Experiments:
# [1] = molecular target: T1, TRBC1 protein (recombinant) (Homo sapiens, UniProt P01850); assay: SPR; Biacore T200, 25 °C; antibodies captured on protein A/G immobilised on CM5 chips; TRBC1 or TRBC2 protein as analyte, threefold dilutions from 1,000 nM to 4.1 nM, multiple-cycle kinetics; PBS-P (20 mM phosphate pH 7.4, 137 mM NaCl, 2.7 mM KCl, 0.05% P20); 1:1 kinetics binding model; settings: both partners purified
# T1 construct: T cell receptor beta constant 1 (TRBC1), recombinant protein bought from Acro Biosystems; The discussion calls it 'TRBC1 peptide'; see the vendor's data sheet for the catalogue number; also called recombinant TRBC1 protein; TRBC1 peptide; source: bought: Acro Biosystems, cat. no; TR1-H52H4
# [2] = molecular target: T2, TRBC2 protein (recombinant) (Homo sapiens, UniProt A0A5B9); assay: as above; settings: both partners purified
# T2 construct: T cell receptor beta constant 2 (TRBC2), recombinant protein bought from Acro Biosystems; The discussion calls it 'TRBC2 peptide'; see the vendor's data sheet for the catalogue number; also called recombinant TRBC2 protein; TRBC2 peptide; source: bought: Acro Biosystems, cat. no; TR2-H52H3
# TRBC1^+ TCR on T cells = molecular target: T3, TRBC1^+ TCR on T cells (Homo sapiens, UniProt P01850); assay: flow cytometry on cells; T cell cancer cell lines stained with anti-TRBC2 antibodies with a mouse IgG2a Fc, then anti-mouse IgG-Alexa Fluor-647; settings: one partner purified
# T3 construct: variable part (TRBV-TRBD-TRBJ) of the beta chain, different in each cell line or T cell; T cell receptor beta constant 1 (TRBC1) as part of the alpha-beta TCR on the cell surface; On cells the beta chain stands in the whole TCR-CD3 complex; also called TRBC1^+ cells; source: endogenous on wild-type Jurkat and H9 cells; normal human T cells from PBMCs
binding result [1],Kd [2] [nM],binding result (TRBC1^+ TCR on T cells),koff [2] [s⁻¹],Binder
no binding,23,–,–,"YR3-A5 anti-TRBC2 antibody (antibody, V domains shown, also called parent; source: transient transfection of CHO cells (ExpiCHO or CHO-S), purified (HisTrap column or Protein A magnetic beads; SEC); copies: 2 + 2) VH: QVQLVQSGAEVKKPGASVKVSCKASPRGFHGYHMHWVRQAPGQGLEWMGFINPYNDDIQSNERFRGRVTMTSDKSTTTAYMELSSLRSEDTAVYYCARGNGKWGDGAYRFFDFWGQGTLVTVSS VL: DVVMTQSPLSLPVTPGEPASISCRSSQNLVHSNGRTYLQWYLQKPGQSPQLLIYRVSNRFPGVPDRFSGSGSGTDFTLKISRVEAEDVGVYFCSQSTHVPYTFGGGTKVEIK"
no binding,10,no binding,0.0013,"JX1.1 anti-TRBC2 antibody (antibody, V domains shown, human VH; murine IgG2a Fc region; human VL; Human variable light and heavy chains fused to a murine IgG2a Fc region; also called clone V30K, S32R, R27Y; source: ExpiCHO or CHO-S cells, purified (HisTrap column or Protein A magnetic beads; SEC); copies: 2 + 2) VH: QVQLVQSGAEVKKPGASVKVSCKASPYGFHGYHMHWVRQAPGQGLEWMGFINPYNDDIQSNERFRGRVTMTSDKSTTTAYMELSSLRSEDTAVYYCARGNGKWGDGAYRFFDFWGQGTLVTVSS VL: DVVMTQSPLSLPVTPGEPASISCRSSQNLKHRNGRTYLQWYLQKPGQSPQLLIYRVSNRFPGVPDRFSGSGSGTDFTLKISRVEAEDVGVYFCSQSTHVPYTFGGGTKVEIK"
